Paper PMC4199108 (Nature Communications, 2014)
Residues, ends and D or L forms follow the SMILES beside them.

How the values were obtained:
[1] = molecular target: T1, phosphorylated rhodopsin (Meta II) (Bos taurus, UniProt P02699); assay: Extra Meta II assay: stabilization of Meta II by peptide, UV-visible absorption; format: binding, bovine; details: 10 μM ROS-P, 100 mM HEPES pH 8.0, 0 °C, 380-nm absorbance
[2] = molecular target: phosphorylated opsin (OpsP) (Bos taurus, UniProt P02699); format: binding, bovine; details: 1 μM arrestin A366NBD + 2 μM OpsP, 50 mM HEPES pH 7.0, 22 °C
[3] = molecular target: phosphorylated opsin (OpsP) in membranes (bovine, UniProt P02699 1-348, phosphorylated by native rhodopsin kinase (sites not given)); assay: co-sedimentation
[4] = molecular target: T1, phosphorylated rhodopsin (Meta II); details: 380-nm-absorbing Meta II; cited from earlier work

Sequence of phosphorylated opsin (OpsP) in membranes (P02699 whole entry): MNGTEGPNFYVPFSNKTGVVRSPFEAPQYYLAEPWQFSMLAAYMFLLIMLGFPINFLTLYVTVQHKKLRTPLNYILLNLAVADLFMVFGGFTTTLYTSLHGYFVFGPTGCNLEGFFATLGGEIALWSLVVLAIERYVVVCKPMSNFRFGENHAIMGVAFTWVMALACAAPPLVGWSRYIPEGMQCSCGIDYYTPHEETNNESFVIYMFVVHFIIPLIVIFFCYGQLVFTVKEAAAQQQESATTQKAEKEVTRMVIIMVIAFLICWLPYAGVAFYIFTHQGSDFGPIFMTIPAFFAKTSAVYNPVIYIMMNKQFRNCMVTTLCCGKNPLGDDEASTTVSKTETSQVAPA
T1 sequence (P02699 whole entry): as above
Sequence of phosphorylated opsin (OpsP) (P02699 whole entry): as above

| Molecule | Kd [3] [µM] | also measured |
| --- | --- | --- |
| CC[C@H](C)[C@H](NC(=O)[C@H](CC(=O)O)NC(=O)[C@H](CCC(=O)O)NC(=O)[C@H](CCC(N)=O)NC(=O)CNC(=O)[C@@H](N)Cc1ccc(O)cc1)C(=O)N[C@@H](CC(=O)O)C(=O)N[C@H](C(=O)N[C@@H](CCSC)C(=O)NCC(=O)N[C@@H](CC(C)C)C(=O)O)C(C)C [ArrFL-1] (H-YGQEDIDVMGL-OH) |  | Stabilization of Meta II / Extra Meta II formation (in words) [1]: stabilized the 380-nm-absorbing Meta II species over Meta I |
| QRMHLRQYELL [GsαCT] |  | Stabilization of Meta II / Extra Meta II formation (in words) [1]: did not stabilize Meta II; Competition for arrestin binding to phosphorylated opsin (in words) [2]: showed no competition for arrestin binding to phosphorylated opsin |
| YGQEDIDVMGL [ArrFL-1, peptide analogue of the finger loop of rod photoreceptor arrestin] | 1700 |  |
| arrestin: full-length rod photoreceptor arrestin (protein, NBD label on the single cysteine A366C) MKANKPAPNHVIFKKISRDKSVTIYLGKRDYIDHVERVEPVDGVVLVDPELVKGKRVYVSLTAAFRYGQEDIDVMGLSFRRDLYFSQVQVFPPVGASGATTRLQESLIKKLGANTYPFLLTFPDYLPSSVMLQPAPQDVGKSAGVDFEIKAFATHSTDVEEDKIPKKSSVRLLIRKVQHAPRDMGPQPRAEASFQFFMSDKPLRLAVSLSKEIYYHGEPIPVTVAVTNSTEKTVKKIKVLVEQVTNVVLYSSDYYIKTVAAEEAQEKVPPNSSLTKTLTLVPLLANNRERRGIALDGKIKHEDTNLASSTIIKEGIDKTVMGILVSYQIKVKLTVSGLLGELTSSEVATEVPFRLMHPQPEDPDTCKESFQDENFVFEEFARQNLKDAGEYKEEKTDQEAAMDE |  | Stabilization of Meta II species over Meta I [4]: stabilized the 380-nm-absorbing Meta II species over Meta I |
| YGREDLDVLGL [ArrFL-2/3, finger loop peptide of beta-arrestin-1 and beta-arrestin-2] | 2400 |  |
| IKENLKDCGLF [GtαCT, wild-type Gtα C-terminal peptide] | 880 |  |
| ILENLKDCGLF [GtαCT-HA, high-affinity version of the Gtα C-terminal peptide] | 320 |  |
